# Assay results: patent US8754034B2, “Structure-based design of peptide inhibitors of amyloid fibrillation” (The Regents of the University of California, priority 2009, dated 2014)
# “Also recorded” adds a separate entry of the source. Where no end group is shown, it is not given here. [ ]: non-standard residue; d: D form.
# What was measured:
# tau K12 [1] = target: T1, tau K12 (Homo sapiens, UniProt P10636); test: Fibril formation inhibition assay of tau K12 monitored by ThS fluorescence; format: biochemical; details: for effect on K12 fibrillation, comparison between peptides: ThS fluorescence, ratio not given (FIG. 4); for effect on tau K12 fibrillation (ThS fluorescence): peptide at equimolar ratio with K12; for ratio (concentration) dependence of the delay of K12 fibrillation (lag time): various molar ratios of peptide to K12 (FIGS. 5, 6); for average lag time of K12 fibrillation: peptide at equimolar ratio with K12 (FIG. 10b)
# T1 construct: starting Met residue (added initiator methionine before Q244) (N); made in house; host or cells: E. coli BL21 (DE3), vector pNG2 (pET-3b derivative)
# Description: 150 μL reactions containing 50 or 100 μM tau K12, as determined by the micro BCA Protein Assay Kit (Pierce), were incubated in 250 mM sodium phosphate buffer pH 7.4 with 1 mM DTT, 3 μM heparin, and 10 μM ThS (Friedhoff et al., 1998; Perez et al., 1996; Schweers et al., 1995). Peptides were dissolved in 250 mM sodium phosphate buffer pH 7.4 and added at various molar ratios to the reaction mixtures. The fluorescence signal was measured every 15 minutes with excitation and emission wavelengths of 440 and 510 nm, respectively, at 37° C. with continuous shaking at 900 rpm with a diameter of 1 mm in a Varioskan plate reader (Thermo Fisher Scientific, Inc.). Reactions were split into a minimum of 3 replicates in Nunc optically clear bottom, 96-well black plates, sealed with Corning pressure seal tape and monitored for various times. Each experiment was repeated a minimum of four times yielding the same results.
# tau K12 [2] = target: T1, tau K12; test: Electron microscopy of tau K12 fibril formation in the presence of peptides; format: biochemical; details: K12 incubated with peptide, with or without ThS
# Description: 5 μL of sample were applied to glow discharged 400 mesh carbon-coated formar films on copper grids (Ted Pella, Inc.) for three minutes. Grids were rinsed twice with distilled water and stained with 1% uranyl acetate for 90 seconds. Grids were examined in a Hitachi H-7000 transmission electron microscope at 75 kEv.
# amyloid β protein = amyloid β protein (Homo sapiens, UniProt P05067); test: Amyloid beta fibrillation monitored by thioflavin T fluorescence; format: biochemical; details: thioflavin T fluorescence (FIG. 4b)
# Text: In FIG. 4(b), fibril formation of amyloid beta (abeta) protein is not delayed by addition of D-TLKIVW. Tau K12 fibrillation is monitored by ThS fluorescence and amyloid beta fibrillation is monitored by thioflavin T fluorescence.
# tau K12 construct = tau K12 construct (UniProt P10636-8 244-274; P10636-8 306-394, limits assumed); test: cell-based or functional assay
# Sequence of tau K12 construct (P10636 other isoform, or with tags, fused parts or gaps limits assumed): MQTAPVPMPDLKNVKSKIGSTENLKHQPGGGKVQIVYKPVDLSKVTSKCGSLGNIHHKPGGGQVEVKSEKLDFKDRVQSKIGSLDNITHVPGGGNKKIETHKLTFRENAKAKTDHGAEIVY
# T1 sequence (P10636 186-305 isoform P10636-2): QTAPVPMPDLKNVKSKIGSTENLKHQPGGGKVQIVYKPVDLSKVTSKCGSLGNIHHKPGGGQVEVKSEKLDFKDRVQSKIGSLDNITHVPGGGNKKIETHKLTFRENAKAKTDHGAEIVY
# Sequence of amyloid β protein (P05067 672-713 limits assumed): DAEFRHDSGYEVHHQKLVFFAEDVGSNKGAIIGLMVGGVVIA
molecule,measurement,setting,value
D-DYYFEF ([dD][dY][dY][dF][dE][dF]) [D-amino acid peptide designed to pack against the bottom of the VQIVYK atomic structure],"effect on K12 fibrillation, comparison between peptides",tau K12 [1],improved capping over D-DYYFEK
same,effect on tau K12 fibrillation (ThS fluorescence),tau K12 [1],no inhibition
same,ratio (concentration) dependence of the delay of K12 fibrillation (lag time),tau K12 [1],delayed K12 fibrillation in a concentration dependent manner; also recorded: some effect at delaying fibrillation
D-DYYFEK ([dD][dY][dY][dF][dE][dK]),effect on tau K12 fibrillation (ThS fluorescence),tau K12 [1],all peptides except D-DYYFEK systematically delayed fibrillation
"D-GVIGIA (G[dV][dI]G[dI][dA]) [D-amino acid control peptide, a stereoisomer of an L-amino acid peptide known to aggregate on its own, reference compound]",effect on tau K12 fibrillation (ThS fluorescence),tau K12 [1],no effect on fibrillation; also recorded: without any effect on fibrillation
"D-LKTWIV ([dL][dK][dT][dW][dI][dV]) [scrambled peptide of D-TLKIVW, reference compound]","effect on K12 fibrillation, comparison between peptides",tau K12 [1],does not delay the onset of K12 fibrillation
"D-TIKWVL ([dT][dI][dK][dW][dV][dL]) [scrambled peptide of D-TLKIVW, order of residues scrambled in one face]","effect on K12 fibrillation, comparison between peptides",tau K12 [1],does not delay the onset of K12 fibrillation
same,effect on tau K12 fibrillation (ThS fluorescence),tau K12 [1],some inhibitory effect; also recorded: not nearly as effective as D-TLKIVW
"D-TIWKVL ([dT][dI][dW][dK][dV][dL]) [scrambled peptide of D-TLKIVW, reference compound]","effect on K12 fibrillation, comparison between peptides",tau K12 [1],does not delay the onset of K12 fibrillation
D-TLKIVW ([dT][dL][dK][dI][dV][dW]) [D-amino acid peptide designed to pack against the top of the VQIVYK fibril-like structure of tau],molar ratio of peptide relative to tau K12 at which a marginal effect on delay of fibrillation was observed,tau K12 [1],50 fold less peptide relative to tau K12 concentration
same,time without ThS signal,"tau K12 [1]; 50 μM K12, peptide at 2-fold and 5-fold excess, some of the samples",> 300 h
same,time without fibril formation,"tau K12 [1]; 2-fold or 5-fold excess peptide, some experiment replicates",more than 2 weeks
same,"effect on K12 fibrillation, comparison between peptides",tau K12 [1],the most effective peptide; also recorded: delays fibrillation relative to K12 alone
same,effect on tau K12 fibrillation (ThS fluorescence),tau K12 [1],inhibition for several days
same,average lag time of K12 fibrillation,tau K12 [1],over 140 hours
same,effect on tau K12 fibrillation (ThS fluorescence),tau K12 [1]; listed as D-amino acid peptide TLKIVW,prevents the formation of K12fibrils
same,ratio (concentration) dependence of the delay of K12 fibrillation (lag time),tau K12 [1],delayed longer by higher concentrations of the D-peptide
same,fibril formation of K12 seen by electron microscopy,tau K12 [2],there were no fibrils; also recorded: prevents fibril formation; also recorded: fibrils do not form
same,effect on fibril formation of amyloid beta protein,amyloid β protein,no effect on fibrillation; also recorded: not delayed
D-TWKLVL ([dT][dW][dK][dL][dV][dL]) [D-amino acid peptide designed to pack against the top of the VQIVYK fibril structure],molar ratio of peptide relative to tau K12 at which a marginal effect on delay of fibrillation was observed,tau K12 [1],10 fold less peptide relative to tau K12 concentration
same,duration of effective inhibition of K12 fibrillation,tau K12 [1]; 5-fold excess peptide,about 1 week
same,peptide concentration relative to K12 at which an inhibitory effect is still seen,"tau K12 [1]; ThS fluorescence (FIGS. 5, 6)",10 % the molar concentration of K12
same,delay of K12 fibrillation,tau K12 [1]; peptide at equimolar ratio with K12 (FIG. 3a),more than 30 hours
same,ratio (concentration) dependence of the delay of K12 fibrillation (lag time),tau K12 [1],still were inhibiting fibrillation of K12
same,fibril formation of K12 seen by electron microscopy,tau K12 [2],Fibrils do not form
same,fibril formation of K12 seen by electron microscopy,tau K12 [2]; listed as DTWKLVL,there were no fibrils
D-YVIIER ([dY][dV][dI][dI][dE][dR]) [D-amino acid peptide designed to pack against the bottom of the VQIVYK fibril structure],effect on tau K12 fibrillation (ThS fluorescence),tau K12 [1],some delay
same,ratio (concentration) dependence of the delay of K12 fibrillation (lag time),tau K12 [1],delayed K12 fibrillation in a concentration dependent manner; also recorded: clear ratio dependence
L-TLKIVW (SEQ ID NO: 3) [L-amino acid enantiomer of D-TLKIVW],"effect on K12 fibrillation, comparison between peptides",tau K12 [1],"able to inhibit fibril formation, but not nearly as long as D-TLKIVW"
same,effect on tau K12 fibrillation (ThS fluorescence),tau K12 [1],"able to inhibit fibril formation, but not nearly as long as D-TLKIVW; also recorded: not nearly as effective as D-TLKIVW"
same,average lag time of K12 fibrillation,tau K12 [1],about 40 hours
"L-VQIVYK (SEQ ID NO: 1) [steric zipper segment of tau, used as control peptide, reference compound]",effect on tau K12 fibrillation (ThS fluorescence),tau K12 [1],no significant effect on fibrillation
same,effect on tau K12 fibrillation (ThS fluorescence),tau K12 [1]; listed as VQIVYK,no effect at equimolar concentrations or in excess
[dT][dL][dK][dI][dV][dW] (designed binder) [D-TLKIVW],"average lag time of K12 fibrillation (ThS fluorescence), equimolar ratio",tau K12 construct,> 140 h
same,molar amount of peptide relative to tau K12 construct to delay fibrillation,tau K12 construct,50 fold less peptide than K12
same,time without K12 fibrils at 2-fold or 5-fold excess peptide,tau K12 construct,> 2 weeks
[dT][dW][dK][dL][dV][dL] (designed binder) [D-TWKLVL],delay of K12 fibrillation at equimolar ratio (ThS fluorescence),tau K12 construct,> 30 h
same,duration of inhibition of K12 fibrillation at 5-fold excess peptide,tau K12 construct,~1 week
same,molar amount of peptide relative to tau K12 construct to delay fibrillation,tau K12 construct,10 fold less peptide than K12
[dT][dI][dK][dW][dV][dL] [D-TIKWVL],"average lag time of K12 fibrillation (ThS fluorescence), equimolar ratio",tau K12 construct,54 h
